From patent publication US20230416330A1, “Optimized GIP Peptide Analogues” (Antag Therapeutics ApS, priority 2019, published 2023)
Starred links: 1 amine or outer side, 2 acyl side, 3 side chain; linkers in the order of their positions; H or OH if unused. Non-standard residues stand in square brackets, D forms with d. Residues, ends and D or L forms follow the SMILES beside them. Groups on a side chain read outwards from the residue. No end group written: not given here. *: point of attachment. C16 diacid = O=C(O)CCCCCCCCCCCCCCC(=O)*; γGlu = O=C(O)[C@H](CCC(=O)[*:2])N[*:1]; Glutaryl = O=C(CCCC(=O)[*:2])[*:1]; Aib = CC(C)(N)C(=O)O

Experiments:
[1] = Physical stability: fibril formation in Thioflavin T (ThT) assay with agitation; assay type: physicochemical; conditions: 25° C., agitation
Summary of the method: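 Read-out is continuous ThT fluorescence at 486 nm, with lag time taken where signal reaches 10% between pre- and post-transition baselines. Filtered samples (1, 5, 7.5 or 15 mg/ml; pH 7.4 phosphate buffer or NaOH-adjusted water) were stressed at 25° C. by orbital rotation at 300 rpm with one silica bead per well.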

[2] = Solubility by visual inspection of peptide solutions; assay type: physicochemical
Summary of the method: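 Solubility scored by eye: clear, colorless appearance after gentle mixing. Samples prepared at 1, 5, 7.5 or 15 mg/ml in either pH 7.4 water (NaOH-adjusted) or 50 mM sodium phosphate buffer, pH 7.4.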

human GIP receptor = molecular target: T1, human GIP receptor (human, UniProt P48546 22-466); experiment: cell-based or functional assay
T1 sequence (looked up): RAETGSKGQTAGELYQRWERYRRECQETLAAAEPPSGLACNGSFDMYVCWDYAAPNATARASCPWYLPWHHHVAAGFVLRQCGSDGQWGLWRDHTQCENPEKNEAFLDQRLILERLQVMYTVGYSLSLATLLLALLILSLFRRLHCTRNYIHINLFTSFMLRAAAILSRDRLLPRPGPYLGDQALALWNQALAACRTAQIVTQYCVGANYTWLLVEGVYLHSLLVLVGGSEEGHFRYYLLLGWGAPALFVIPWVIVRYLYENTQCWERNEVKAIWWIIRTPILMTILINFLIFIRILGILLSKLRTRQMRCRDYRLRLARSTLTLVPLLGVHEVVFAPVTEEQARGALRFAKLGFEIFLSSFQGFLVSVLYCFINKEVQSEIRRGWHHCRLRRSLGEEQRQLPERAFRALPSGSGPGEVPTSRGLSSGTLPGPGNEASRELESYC

## CC[C@H](C)[C@H](NC(=O)[C@H](CCCCN)NC(=O)[C@H](CCC(=O)O)NC(=O)[C@H](CC(C)C)NC(=O)C(C)(C)NC(=O)[C@@H](NC(=O)[C@H](CO)NC(=O)[C@H](Cc1ccc(O)cc1)NC(=O)[C@H](CCC(=O)O)NC(=O)[C@H](CO)NC(=O)[C@@H](NC(=O)[C@H](Cc1ccccc1)NC(=O)[C@@H](NC(=O)CNC(=O)CCCC(=O)O)[C@@H](C)O)[C@@H](C)CC)[C@@H](C)CC)C(=O)N[C@@H](CCCCNC(=O)CCCCCCCCCCCCCCC(=O)O)C(=O)N[C@@H](CCC(N)=O)C(=O)N[C@@H](CCC(N)=O)C(=O)N[C@@H](CCC(=O)O)C(=O)N[C@@H](Cc1ccccc1)C(=O)N[C@H](C(=O)N[C@@H](CCC(=O)O)C(=O)N[C@@H](Cc1c[nH]c2ccccc12)C(=O)N[C@@H](CC(C)C)C(=O)N[C@@H](CC(C)C)C(=O)N[C@@H](C)C(=O)N[C@@H](CCC(N)=O)C(=O)N[C@@H](CCCCN)C(=O)N1CCC[C@H]1C(=O)N[C@@H](CO)C(=O)N[C@@H](CO)C(=O)NCC(=O)N[C@@H](C)C(=O)N1CCC[C@H]1C(=O)N1CCC[C@H]1C(=O)N1CCC[C@H]1C(=O)N[C@@H](CO)C(=O)O)C(C)C [AT717] (Glutaryl-GTFISEYSI[Aib]LEKIK(C16 diacid)QQEFVEWLLAQKPSSGAPPPS-OH)
[1]; 1 mg/ml, TFA, Phosphate (7.4)
  Avr lag time (h): fnd (Fnd = fibrils not detected within experiment time (96 hours) with agitation.)
[1]; 7.5 mg/ml, Na, MilliQ (8)
  Avr lag time (h): fnd (Fnd = fibrils not detected within experiment time (96 hours) with agitation.)
[1]; 15 mg/ml, Na, MilliQ (8)
  Avr lag time (h): fnd (Fnd = fibrils not detected within experiment time (96 hours) with agitation.)
[2]; 1 mg/ml, TFA, Phosphate (7.4)
  Visual appearance: Clear
[2]; 7.5 mg/ml, Na, MilliQ (8)
  Visual appearance: Clear
[2]; 15 mg/ml, Na, MilliQ (8)
  Visual appearance: Clear

B1: AT719 (peptide)
peptide: EGTFISDYSIAMDKIK(C16 diacid)QQDFVNWLLAQK-OH
modifications: N-terminus assumed
SMILES: CC[C@H](C)[C@H](NC(=O)[C@H](CO)NC(=O)[C@H](Cc1ccc(O)cc1)NC(=O)[C@H](CC(=O)O)NC(=O)[C@H](CO)NC(=O)[C@@H](NC(=O)[C@H](Cc1ccccc1)NC(=O)[C@@H](NC(=O)CNC(=O)[C@@H](N)CCC(=O)O)[C@@H](C)O)[C@@H](C)CC)C(=O)N[C@@H](C)C(=O)N[C@@H](CCSC)C(=O)N[C@@H](CC(=O)O)C(=O)N[C@@H](CCCCN)C(=O)N[C@H](C(=O)N[C@@H](CCCCNC(=O)CCCCCCCCCCCCCCC(=O)O)C(=O)N[C@@H](CCC(N)=O)C(=O)N[C@@H](CCC(N)=O)C(=O)N[C@@H](CC(=O)O)C(=O)N[C@@H](Cc1ccccc1)C(=O)N[C@H](C(=O)N[C@@H](CC(N)=O)C(=O)N[C@@H](Cc1c[nH]c2ccccc12)C(=O)N[C@@H](CC(C)C)C(=O)N[C@@H](CC(C)C)C(=O)N[C@@H](C)C(=O)N[C@@H](CCC(N)=O)C(=O)N[C@@H](CCCCN)C(=O)O)C(C)C)[C@@H](C)CC
Human GIP receptor
  nM (Kb, Gaddum assay, cAMP): 7.6 nM
  pKb (Gaddum assay, cAMP): 8.1

B2: AT724 (peptide)
peptide: EGTFISEYSI[Aib]LEKIK([Lys-Ala-Ala-Ala-Glu-Lys-Ala-Ala-Ala-Glu-Lys-Ala-Ala-Ala-Glu-C16 diacid])QQEFVEWLLAQKPSSGAPPPS-OH
modifications: not fully specified
Human GIP receptor
  nM (Kb, Gaddum assay, cAMP): 0.31 nM
  pKb (Gaddum assay, cAMP): 9.5

B3: AT720 (peptide)
peptide: EGTFISEYSI[Aib]LEKIK([Aib-C16 diacid])QQEFVEWLLAQKPSSGAPPPS-OH
modifications: N-terminus assumed
SMILES: CC[C@H](C)[C@H](NC(=O)[C@H](CCCCN)NC(=O)[C@H](CCC(=O)O)NC(=O)[C@H](CC(C)C)NC(=O)C(C)(C)NC(=O)[C@@H](NC(=O)[C@H](CO)NC(=O)[C@H](Cc1ccc(O)cc1)NC(=O)[C@H](CCC(=O)O)NC(=O)[C@H](CO)NC(=O)[C@@H](NC(=O)[C@H](Cc1ccccc1)NC(=O)[C@@H](NC(=O)CNC(=O)[C@@H](N)CCC(=O)O)[C@@H](C)O)[C@@H](C)CC)[C@@H](C)CC)C(=O)N[C@@H](CCCCNC(=O)C(C)(C)NC(=O)CCCCCCCCCCCCCCC(=O)O)C(=O)N[C@@H](CCC(N)=O)C(=O)N[C@@H](CCC(N)=O)C(=O)N[C@@H](CCC(=O)O)C(=O)N[C@@H](Cc1ccccc1)C(=O)N[C@H](C(=O)N[C@@H](CCC(=O)O)C(=O)N[C@@H](Cc1c[nH]c2ccccc12)C(=O)N[C@@H](CC(C)C)C(=O)N[C@@H](CC(C)C)C(=O)N[C@@H](C)C(=O)N[C@@H](CCC(N)=O)C(=O)N[C@@H](CCCCN)C(=O)N1CCC[C@H]1C(=O)N[C@@H](CO)C(=O)N[C@@H](CO)C(=O)NCC(=O)N[C@@H](C)C(=O)N1CCC[C@H]1C(=O)N1CCC[C@H]1C(=O)N1CCC[C@H]1C(=O)N[C@@H](CO)C(=O)O)C(C)C
Human GIP receptor
  nM (Kb, Gaddum assay, cAMP): 0.29 nM
  pKb (Gaddum assay, cAMP): 9.5

B4: AT725 (peptide)
peptide: EGTFISEYSI[Aib]LEKIK([Ala-Glu-Leu-Ala-C16 diacid])QQEFVEWLLAQKPSSGAPPPS-OH
Human GIP receptor
  nM (Kb, Gaddum assay, cAMP): 0.6 nM
  pKb (Gaddum assay, cAMP): 9.2

B5: AT721 (peptide)
peptide: EGTFISEYSI[Aib]LEKIK([γGlu-C16 diacid])QQEFVEWLLAQKPSSGAPPPS-OH
modifications: N-terminus assumed
SMILES: CC[C@H](C)[C@H](NC(=O)[C@H](CCCCN)NC(=O)[C@H](CCC(=O)O)NC(=O)[C@H](CC(C)C)NC(=O)C(C)(C)NC(=O)[C@@H](NC(=O)[C@H](CO)NC(=O)[C@H](Cc1ccc(O)cc1)NC(=O)[C@H](CCC(=O)O)NC(=O)[C@H](CO)NC(=O)[C@@H](NC(=O)[C@H](Cc1ccccc1)NC(=O)[C@@H](NC(=O)CNC(=O)[C@@H](N)CCC(=O)O)[C@@H](C)O)[C@@H](C)CC)[C@@H](C)CC)C(=O)N[C@@H](CCCCNC(=O)CC[C@H](NC(=O)CCCCCCCCCCCCCCC(=O)O)C(=O)O)C(=O)N[C@@H](CCC(N)=O)C(=O)N[C@@H](CCC(N)=O)C(=O)N[C@@H](CCC(=O)O)C(=O)N[C@@H](Cc1ccccc1)C(=O)N[C@H](C(=O)N[C@@H](CCC(=O)O)C(=O)N[C@@H](Cc1c[nH]c2ccccc12)C(=O)N[C@@H](CC(C)C)C(=O)N[C@@H](CC(C)C)C(=O)N[C@@H](C)C(=O)N[C@@H](CCC(N)=O)C(=O)N[C@@H](CCCCN)C(=O)N1CCC[C@H]1C(=O)N[C@@H](CO)C(=O)N[C@@H](CO)C(=O)NCC(=O)N[C@@H](C)C(=O)N1CCC[C@H]1C(=O)N1CCC[C@H]1C(=O)N1CCC[C@H]1C(=O)N[C@@H](CO)C(=O)O)C(C)C
Human GIP receptor
  nM (Kb, Gaddum assay, cAMP): 0.31 nM
  pKb (Gaddum assay, cAMP): 9.5

B6: AT722 (peptide)
peptide: EGTFISEYSI[Aib]LEKIK([Ser-Gly-Gly-Gly-Gly-C16 diacid])QQEFVEWLLAQKPSSGAPPPS-OH
modifications: N-terminus assumed
SMILES: CC[C@H](C)[C@H](NC(=O)[C@H](CCCCN)NC(=O)[C@H](CCC(=O)O)NC(=O)[C@H](CC(C)C)NC(=O)C(C)(C)NC(=O)[C@@H](NC(=O)[C@H](CO)NC(=O)[C@H](Cc1ccc(O)cc1)NC(=O)[C@H](CCC(=O)O)NC(=O)[C@H](CO)NC(=O)[C@@H](NC(=O)[C@H](Cc1ccccc1)NC(=O)[C@@H](NC(=O)CNC(=O)[C@@H](N)CCC(=O)O)[C@@H](C)O)[C@@H](C)CC)[C@@H](C)CC)C(=O)N[C@@H](CCCCNC(=O)[C@H](CO)NC(=O)CNC(=O)CNC(=O)CNC(=O)CNC(=O)CCCCCCCCCCCCCCC(=O)O)C(=O)N[C@@H](CCC(N)=O)C(=O)N[C@@H](CCC(N)=O)C(=O)N[C@@H](CCC(=O)O)C(=O)N[C@@H](Cc1ccccc1)C(=O)N[C@H](C(=O)N[C@@H](CCC(=O)O)C(=O)N[C@@H](Cc1c[nH]c2ccccc12)C(=O)N[C@@H](CC(C)C)C(=O)N[C@@H](CC(C)C)C(=O)N[C@@H](C)C(=O)N[C@@H](CCC(N)=O)C(=O)N[C@@H](CCCCN)C(=O)N1CCC[C@H]1C(=O)N[C@@H](CO)C(=O)N[C@@H](CO)C(=O)NCC(=O)N[C@@H](C)C(=O)N1CCC[C@H]1C(=O)N1CCC[C@H]1C(=O)N1CCC[C@H]1C(=O)N[C@@H](CO)C(=O)O)C(C)C
Human GIP receptor
  nM (Kb, Gaddum assay, cAMP): 0.28 nM
  pKb (Gaddum assay, cAMP): 9.6
